{
  "source": "patent US20030167476A1",
  "key": {"[1]": {"target": "OR1, RASSL derived from the human kappa opioid receptor (human)", "experiment": "cell-based or functional assay"}, "[2]": {"target": "OR2, RASSL derived from the human kappa opioid receptor (human)", "experiment": "cell-based or functional assay"}, "[3]": {"target": "OR1, RASSL derived from the human kappa opioid receptor (human)", "experiment": "binding to the receptor expressed in COS-7 and CHO-KI cells; Ki, method only 'as previously described'"}, "[4]": {"target": "OR2, RASSL derived from the human kappa opioid receptor (human)", "experiment": "binding to the receptor expressed in COS-7 and CHO-KI cells; Ki, method only 'as previously described'"}},
  "data": [
    {"substance": "Dynorphin A (from UniProt P01213 207-223) (peptide)", "values": [
      {"measurement": "EC50, signaling (activation of G protein-mediated signal)", "setting": "[1]", "value": 0.061, "unit": "µM"},
      {"measurement": "EC50, signaling (activation of G protein-mediated signal)", "setting": "[2]", "value": 1.08, "unit": "µM"},
      {"measurement": "Ki", "setting": "[3]", "value": 0.0146, "unit": "µM"},
      {"measurement": "Ki", "setting": "[4]", "value": 0.125, "unit": "µM"}
    ]}
  ]
}
